T1: FcRL1, overexpressed on 3T3 cells (UniProt Q96LA6 17-429, limits assumed)
T1 construct: whole, on cells
T1 sequence (looked up): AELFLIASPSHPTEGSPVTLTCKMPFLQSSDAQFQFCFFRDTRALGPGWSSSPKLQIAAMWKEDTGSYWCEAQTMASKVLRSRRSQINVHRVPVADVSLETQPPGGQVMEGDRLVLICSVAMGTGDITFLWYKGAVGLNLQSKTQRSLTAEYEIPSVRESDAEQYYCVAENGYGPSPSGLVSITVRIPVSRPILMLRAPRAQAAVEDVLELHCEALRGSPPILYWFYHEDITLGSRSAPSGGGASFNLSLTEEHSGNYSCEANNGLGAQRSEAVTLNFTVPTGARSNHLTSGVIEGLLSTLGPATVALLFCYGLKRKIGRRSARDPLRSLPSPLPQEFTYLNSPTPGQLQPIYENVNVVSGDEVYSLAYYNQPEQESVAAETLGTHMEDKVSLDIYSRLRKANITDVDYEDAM

T2: FcRL2, overexpressed on 3T3 cells (UniProt Q96LA5 20-508, limits assumed)
T2 construct: whole, on cells
T2 sequence (looked up): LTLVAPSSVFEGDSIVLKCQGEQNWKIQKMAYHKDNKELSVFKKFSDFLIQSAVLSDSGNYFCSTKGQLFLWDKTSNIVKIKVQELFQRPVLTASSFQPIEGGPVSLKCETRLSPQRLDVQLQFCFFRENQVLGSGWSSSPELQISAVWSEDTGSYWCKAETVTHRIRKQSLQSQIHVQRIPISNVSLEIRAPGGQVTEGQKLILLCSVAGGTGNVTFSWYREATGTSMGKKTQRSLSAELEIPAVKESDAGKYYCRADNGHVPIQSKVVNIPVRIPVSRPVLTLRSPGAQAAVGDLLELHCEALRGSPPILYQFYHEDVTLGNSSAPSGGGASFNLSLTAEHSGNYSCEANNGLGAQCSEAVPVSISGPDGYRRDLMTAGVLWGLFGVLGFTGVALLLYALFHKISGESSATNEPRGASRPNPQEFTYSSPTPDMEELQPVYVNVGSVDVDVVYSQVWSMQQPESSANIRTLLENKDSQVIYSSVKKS

T3: FcRL4, overexpressed on 3T3 cells (UniProt Q96PJ5 20-515, limits assumed)
T3 construct: whole, on cells
T3 sequence (looked up): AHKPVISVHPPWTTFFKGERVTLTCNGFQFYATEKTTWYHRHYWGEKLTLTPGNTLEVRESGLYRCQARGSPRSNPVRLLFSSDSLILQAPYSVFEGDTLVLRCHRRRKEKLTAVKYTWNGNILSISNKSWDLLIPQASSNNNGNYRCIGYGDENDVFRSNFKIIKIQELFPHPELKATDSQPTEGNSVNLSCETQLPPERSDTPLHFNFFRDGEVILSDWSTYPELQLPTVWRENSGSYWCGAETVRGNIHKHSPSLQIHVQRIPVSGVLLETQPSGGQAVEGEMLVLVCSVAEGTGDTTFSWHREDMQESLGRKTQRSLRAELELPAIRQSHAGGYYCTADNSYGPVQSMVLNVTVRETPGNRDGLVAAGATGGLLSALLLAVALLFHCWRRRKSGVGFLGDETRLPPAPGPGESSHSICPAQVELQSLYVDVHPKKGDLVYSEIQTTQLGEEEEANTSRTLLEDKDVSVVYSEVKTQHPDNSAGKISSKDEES

T4: Fc Receptor-like 5 (FcRL5), full length, overexpressed on 3T3 or Raji cells (human, UniProt Q96RD9 16-977)
T4 construct: also called 3T3-FcRL5
T4 sequence: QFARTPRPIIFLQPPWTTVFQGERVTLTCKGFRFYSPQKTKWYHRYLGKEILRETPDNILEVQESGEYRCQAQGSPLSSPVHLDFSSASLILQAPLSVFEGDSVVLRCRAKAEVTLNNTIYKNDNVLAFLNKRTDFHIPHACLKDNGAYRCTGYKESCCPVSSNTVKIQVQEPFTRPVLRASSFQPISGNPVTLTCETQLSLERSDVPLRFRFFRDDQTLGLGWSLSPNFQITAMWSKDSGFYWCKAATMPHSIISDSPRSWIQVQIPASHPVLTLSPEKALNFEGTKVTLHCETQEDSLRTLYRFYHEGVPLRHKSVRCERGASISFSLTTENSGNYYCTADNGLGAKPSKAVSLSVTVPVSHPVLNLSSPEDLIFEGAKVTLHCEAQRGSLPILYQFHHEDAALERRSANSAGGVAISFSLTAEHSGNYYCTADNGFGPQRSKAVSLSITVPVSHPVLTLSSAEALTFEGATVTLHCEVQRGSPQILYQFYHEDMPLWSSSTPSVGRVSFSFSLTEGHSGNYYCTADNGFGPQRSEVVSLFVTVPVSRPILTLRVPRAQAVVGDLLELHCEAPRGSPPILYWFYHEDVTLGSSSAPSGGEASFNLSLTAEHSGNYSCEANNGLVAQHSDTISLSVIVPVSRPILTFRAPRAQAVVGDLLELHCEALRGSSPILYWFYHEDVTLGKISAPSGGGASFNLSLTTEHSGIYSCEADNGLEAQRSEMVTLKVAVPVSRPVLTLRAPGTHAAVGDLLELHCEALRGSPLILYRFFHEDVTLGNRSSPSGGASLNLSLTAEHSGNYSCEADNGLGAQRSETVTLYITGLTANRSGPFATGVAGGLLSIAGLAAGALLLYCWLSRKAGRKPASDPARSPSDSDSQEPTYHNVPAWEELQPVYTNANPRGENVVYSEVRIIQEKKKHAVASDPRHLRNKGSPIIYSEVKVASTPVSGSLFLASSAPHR

B1: ET200-002 (scFv)
scFv: NFMLTQPHSVSESPGKTVTISCTRSSGSIASNYVQWYQQRPGSAPTTVIYEDNQRPSGVPDRFSGSIDSSSNSASLTISGLKTEDEADYYCQSYDSSNSVVFGGGTKLTVLGSRGGGGSGGGGSGGGGSLEMAQVQLVQSGTEVKKPGASVRVACKASGYPFNKYDINWVRQAPGQGLEWMGGIIPIFRTTNYAQKFQGRVTITADESTSTAYMELSSLRSEDTAVYYCAREWFYWDIWGQGTLVTVSSTSGQAGQHHHHHHGAYPYDVPDYAS
notes: screened as phage clone; entry is VL-linker-VH-His tag-HA tag
B2: ET200-033 (scFv)
scFv: NFMLTQPHSVSESPGKTVTISCTGSSGSIASNYVQWYQQRPGSAPTTVIYEDNQRPSGVPDRFSGSIDSSSNSASLTISGLKTEDEADYYCQSYDSSNHWVFGGGTKLTVLGSRGGGGSGGGGSGGGGSLEMAQVQLQQWGAGLLKPSETLSLTCAVYGGSFSGYYWSWIRQPPGKGLEWIGEITHSGRSNYNPSLKSRVTISVDTSKNQFSLKLSSVTAADTAVYYCARSSIMSDYWGQGTLVTVSSTSGQAGQHHHHHHGAYPYDVPDYAS
notes: as for B1
B3: ET200-029 (scFv)
scFv: QAVLTQPPSVSVAPGKTARVTCGGNNIGSESVHWYQQKPGQAPVLVIYYDTDRPSGIPERFSGSHSGTTATLTISRVEAGDEADYYCQVWDSSRDHVVFGGGTKLTVLGSRGGGGSGGGGSGGGGSLEMAQVQLVQSGGGVVQPGRSLRLSCAASGFTFSSYAMHWVRQAPGKGLEWVAVISYDGSNKYYADSVKGLFTISRDNSKNTLYLQMNSLRAEDTAVYYCARSYFTSGFYDYWGQGTLVTVSSTSGQAGQHHHHHHGAYPYDVPDYAS
notes: as for B1
B4: ET200-032 (scFv)
scFv: LPVLTQPPSASGTPGQRVTISCSGSSSNVGSYTVNWYRQLPGTAPTLLIYNNNQRPSGVPDRFSDSKSGTSASLTISGLQPEDEADYYCAAWDDRLGGYVFGTGTKVTVLGSRGGGGSGGGGSGGGGSLEMAEVQLVQSGAEVKKPGESLKISCKGSGYSFTNYWIGWVRQMPGKGLEWMGIIYPGDSDTRYSPSFQGQVTISADKSISTAYLQWSSLKASDTAMYYCARSTGSSHMSDEWGQGTLVTVSSTSGQAGQHHHHHHGAYPYDVPDYAS
notes: as for B1
B5: ET200-028 (scFv)
scFv: QSVLTQPPAASGTPGQRVTISCSGGVSNIGSGALNWYQQLPGTAPKLLIYSYNQRPSGVSDRFSGSRSATSASLAISGLQSEDEADYYCATWDDSVNGWVFGGGTKLTVLGSRGGGGSGGGGSGGGGSLEMAQVQLVQSGAEVKKPGDSVKVSCKPSGYNFLNYGINWVRQAPGQGLEWMGWISTYTGNTNYAQKLQGRVTFTTDTSTSTAYMEMRSLRSDDTAVYYCARDLYYYEGVDYWGQGTLVTVSSTSGQAGQHHHHHHGAYPYDVPDYAS
notes: as for B1
B6: ET200-034 (scFv)
scFv: QSVLTQPPSVSGAPGQRVTISCTGSTSNIGAGYDVHWYQQLPGTAPKLLINNNRNRPSGVPDRFSGSKSGTSATLGITGLQTGDEADYYCGTWDGSLTGAVFGGGTKLTVLGSRGGGGSGGGGSGGGGSLEMAEVQLVQSGAEVKKPGSSVKVSCKASGGTFSSYAISWVRQAPGQGLEWMGGIIPIFGTANYAQKFQGRVTITADESTSTAYMELSSLRSEDTAVYYCARGSALDHYDRWGQGTLVTVSSTSGQAGQHHHHHHGAYPYDVPDYAS
notes: as for B1
B7: ET200-030 (scFv)
scFv: QSVVTQPPSVSGAPGQRVTISCTGSSSNIGAGYDVNWYQQFPGTAPKLLIYGNSNRPSGVPDRFSGSKSGTSASLAITGLQAEDEADYYCQSYDSSLSGSYVFGTGTKVTVLGSRGGGGSGGGGSGGGGSLEMAQMQLVQSGAEVKKPGASVKVSCKASGYTLTELSMHWVRQAPGKGLEWMGGFDPEDGETIYAQKFQGRVTMTEDTSTDTAYMELSSLRSEDTAVYYCARMSSMYYDWGQGTLVTVSSTSGQAGQHHHHHHGAYPYDVPDYAS
notes: as for B1
B8: ET200-031 (scFv)
scFv: SYVLTQPPSVSVAPGKTARITCGGNNIGSKSVHWYQQKPGQAPVLVIYYDSDRPSGIPERFSGSNSGNTATLTISRVEAGDEADYYCQVWDSSSDYVFGTGTKVTVLGSRGGGGSGGGGSGGGGSLEMAEVQLVETGGGLVKPGGSLRLSCAASGFTVSDYYMSWIRQAPGKGLEWISYISGSGNSIYYADSVKGRFTISRDNAKNSLDLQMTSLRAEDTAVYYCARSTKFDYWGQGTLVTVSSTSGQAGQHHHHHHGAYPYDVPDYAS
notes: screened as phage clone; entry is VL-linker-VH-His tag-HA tag; also called ET200-31

What was measured:
SLAMF9 protein = SLAMF9 protein (UniProt Q96A28 19-236, limits assumed); experiment: phage clone on SLAMF9 protein
[1] = target: T1, FcRL1, overexpressed on 3T3 cells; experiment: phage clone on 3T3-FcRL1 cells
[2] = target: T2, FcRL2, overexpressed on 3T3 cells; experiment: phage clone on 3T3-FcRL2 cells
[3] = target: T3, FcRL4, overexpressed on 3T3 cells; experiment: phage clone on 3T3-FcRL4 cells
[4] = target: T4, Fc Receptor-like 5 (FcRL5), full …; experiment: phage clone screening on cells
Method: Once selected, positive scFv clones are further tested for their binding to FcRL5 (e.g., human FcRL5) on live 3T3 cell surfaces by flow cytometry. Briefly, phage clones are incubated with 3T3 cells over-expressing FcRL5. The cells are washed and then incubated with a mouse anti-M13 coat protein mAb. Cells are washed again and labeled with a PE-horse anti-mouse Ig prior to flow cytometry.
Phage′ display against FcRL5 was performed to enrich for scFv phage clones that bind to FcRL5 specifically. Screening was carried out on FcRL5 overexpressing 3T3 cells or 3T3 cells expressing FcRL1, 2, 3, 4 or 6 as a negative control (FIG. 2).

SLAMF9 protein, sequence (Q96A28 19-236 limits assumed): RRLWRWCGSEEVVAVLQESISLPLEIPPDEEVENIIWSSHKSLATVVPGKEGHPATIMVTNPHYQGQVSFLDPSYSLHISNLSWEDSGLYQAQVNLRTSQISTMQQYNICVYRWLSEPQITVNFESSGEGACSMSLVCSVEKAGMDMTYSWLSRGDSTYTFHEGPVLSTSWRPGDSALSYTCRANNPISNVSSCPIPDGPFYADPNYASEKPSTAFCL

| Binder | binding result (SLAMF9 protein) | binding result [1] | binding result [2] | binding result [3] | binding result [4] |
| --- | --- | --- | --- | --- | --- |
| B1 | no binding | no binding | no binding | no binding | binds |
| B2 | no binding | no binding | no binding | no binding | binds |
| B3 | no binding | no binding | no binding | no binding | binds |
| B4 | no binding | no binding | no binding | no binding | binds |
| B5 | no binding | no binding | no binding | no binding | binds |
| B6 | no binding | no binding | no binding | no binding | binds |
| B7 | no binding | no binding | no binding | no binding | binds |
| B8 | no binding | no binding | no binding | no binding | binds |

Reference: patent US20210388081A1 (Memorial Sloan Kettering, published 2021)
